Laboratory results: the nanobody polyreactivity screen of Harvey et al. (2022)

Test: yeast display, Sf9 membrane polyspecificity reagent, FACS + sequencing; frameworks hold sequencing errors
Outline: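 Nanobodies came from a synthetic yeast display library in Saccharomyces cerevisiae BJ5465, induced with galactose for 36–48 hours and stained for 1 hour at 4 °C with 10% biotinylated, detergent-solubilized Sf9 membrane reagent. Cells were enriched on streptavidin microbeads and then FACS-sorted, with low and high (top ~1%) gates set on anti-HA fluorescence for expression and streptavidin fluorescence for reagent binding. Each polyreactivity label reflects the gate a clone came from. Genes were amplified by colony PCR, sequenced by MiSeq 2 × 250 and filtered by CDR length.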

Row | Sequence | polyreactivity (PSR sort gate)
1 | QVQLVESGGGLVQAGGSLRLSCAASGLTFASYAMGWYRQAPGKERELVARISRSGGSTYYADSVKGRFTISRDNAKNTVYLQMKSLKPEDTAVYYCAADYIFRRYPVGGIYDYDYWGQGTQVSVSS | high polyreactivity
2 | QVQLVESGGGLVQAGGSLRLSCAASGLTFAYNTMGWYRQAPGKEREFVASISSSGGNTYYADAVKGRFTISRDNAKNTVYLQMNSLKPEDTAVYYCAAKKKYHYFASYKRFEYWGQGTQVTVSS | low polyreactivity
3 | QVQLVESGGGLVQAGGSLRLSCAASGLTFAYYAMGWYRQAPGKERELVATISRSGSTYYADSVKGRFTISRDNAKNTVYLQMNSLKPEDTAVDYCATAYHHYVYRQYTFGRGIYDFWGQGTQVTVSS | high polyreactivity
4 | QVQLVESGGGLVQAGGSLRLSCAASGLTFAYYDMGWYRQAPGKERELVAAITSGGTTNYADSVKGRFTISRDNAKNTVYLQMNSLKPEDTAVYYCYADYYSRIVGVRIYDYWGQGTQVTVSS | low polyreactivity
5 | QVQLVESGGGLVQAGGSLRLSCAASGLTFDGYAMGWYRQAPGKERELVARITRNGGITYYADSVKGRFTISRDNAKNTVYLQMNSLKPEDTAVYYCAAGQRLWKYYGVIGWTVTNYYYWGQGTQVTVSS | high polyreactivity
6 | QVQLVESGGGLVQAGGSLRLSCAASGLTFDKYTMGWYRQAPGKERELVARISTSGSRTYYADSVKGRFTISRDNAKNTVYLQMNSLKPEDTAVYYCNKDGWIRRRRGYDYWGQGTQVTVSS | high polyreactivity
7 | QVQLVESGGGLVQAGGSLRLSCAASGLTFDRYGMGWYRQAPGKERELVAAIDGSGTSTYYADSVKGRFTISRDNAKNTVYLQMNSLKPEDTAVYYCNAYWTYEFPSYDYWGQGTQVTVSS | low polyreactivity
8 | QVQLVESGGGLVQAGGSLRLSCAASGLTFDVYTMGWYRQAPGKETEFVAAITWDGGITYYADSVKGRFTISRDNAKNSVYLQMNSLKPEDTAVYYCAADYALGEVYWYNYWGLGTQVTVSS | low polyreactivity
9 | QVQLVESGGGLVQAGGSLRLSCAASGLTFDYYTMGWYRQAPGNERELVAAINWSGGRTYYADSVKGRFTISRDNAKNTVYLQMNSLKPEDTAVYYCAAETYRRHDYDYWGQGTQVTVSS | high polyreactivity
10 | QVQLVESGGGLVQAGGSLRLSCAASGLTFEGNAMGWYRQAPGKERELVAAISRRGGSTYYADSVKGRFTISRHNAKNTVYLQMNSLKPEDSAVYYCAADRQPYTDKYDYWGQGTQVTVSS | high polyreactivity
11 | QVQLVESGGGLVQAGGSLRLSCAASGLTFEGYAMGWYRQAPGKERELVAAISSSSGRTYYADSVKGRFTISRDNAKNTVYLQMNSLKPEDTAVYYCAARPGSGRSYTSDYWGQGTQVTVSS | high polyreactivity
12 | QVQLVESGGGLVQAGGSLRLSCAASGLTFEHNAMGWYRQAPGKEREFVAVISWRGTSTYYADSVKGRFTISRDNAKNTVYLQMNSLKPEDTPVYYCATRYYGDDGYRYDHWGQGTQVTVSS | high polyreactivity
13 | QVQLVESGGGLVQAGGSLRLSCAASGLTFERYAMGWYRQAPGKERELVAAISIRGGSTYYADSVKGRFTISRDNAKNTVYLQMNSLKPEDTAVYYCSADGRGREYDYWGQGTQVTVSS | low polyreactivity
14 | QVQLVESGGGLVQAGGSLRLSCAASGLTFEYNAMGWYRQAPGKERELVASISSGGGTNYADSVKGRFTISRDNAKNTVYLQMNSLKPEDTAVYYCATDNYDWSCWAFRGYWYDYWGQGTQVTVSS | low polyreactivity
15 | QVQLVESGGGLVQAGGSLRLSCAASGLTFFGYTMGWYREAPGKEREFVADITWSGGSTYYADSVKGRFTISRDNAKNTVYLQMNSLKPEDTAVYYCSVAPPNWDPFVDDTYLMDYWGQGTQVTVSS | low polyreactivity
16 | QVQLVESGGGLVQAGGSLRLSCAASGLTFGDYAMGWYRQAPGKERELVAVISRSGGSTYYADSVKGRFTISRDNAKNTVYLQMNSLKTEDTAVYYCDKDAGLQKYHHDYWGQGTQVTVSS | low polyreactivity

Row | Sequence | polyreactivity (PSR sort gate)
17 | QVQLVESGGGLVQAGGSLRLSCAASGLTFGFNAMGWYRQAPWKERELDAAISSGGSTYYADSVKGRFTISRDNAKNTVYLQMNSLKPEDTAVYYCAKSGGSSQYWYGYWGQGTQVTVSS | high polyreactivity
18 | QVQLVESGGGLVQAGGSLRLSCAASGLTFGLYAMGWYRQAPGKERELVAVITAGGRTYYADSVKGRFTISRDNAKNTVYLQMNSLKPEDTAVYYCATVNYGSGRGYRRVYTAYYYWGQGTQVTVSS | low polyreactivity
19 | QVQLVESGGGLVQAGGSLRLSCAASGLTFGRNAMGWYRQAPWKERELVAAISRSGGRTSYADSVKGRFTISRDNAKNTVYLQMNSLKPEDTAVYYCAARSDVYTHDYWGQGTQVTVSS | high polyreactivity
20 | QVQLVESGGGLVQAGGSLRLSCAASGLTFGSYAMGWYRQAPGKERELVAAISRSGGSTYYADSVKGRFTISRDNAKNTVYLQMNSLKPEDTAVYYCNAVNPYYAPTDRRVGYDYWGQGTQVTVSS | high polyreactivity
21 | QVQLVESGGGLVQAGGSLRLSCAASGLTFGSYTMGWYRQAPGRERDLVAAITSDGSTNYADSVKGRFTISRDNAKNTVYLQMNSLKPEDTAVYYCNKGETLYGSVPYDYWGQGTQVTVSS | high polyreactivity
22 | QVQLVESGGGLVQAGGSLRLSCAASGLTFGVNAMGWYRQAPGKERELVAAISGSGGRTNYADSVKGRFTISRDNAKNTVYLQMNSLKPEDTAVYYCNARFPDWALSEISHSTTYGYWGQGTQVTVSS | low polyreactivity
23 | QVQLVESGGGLVQAGGSLRLSCAASGLTFGWNAMGWYRQAPGKERELVAGITSDTITHYADSVKGRFTISRDNAKNTVYLQMNSLKPEDTAVYYCAVPRGVASLQKVEFGYWGQGTQVTVSS | low polyreactivity
24 | QVQLVESGGGLVQAGGSLRLSCAASGLTFGYYAMGWYRQAPGKEREFVASITWSGGTTYYADSVKGRFTISRDNAKNTVYLQMNSLKPEDTAVYYCAAQRSYAYEYWGQGTQVTVSS | high polyreactivity
25 | QVQLVESGGGLVQAGGSLRLSCAASGLTFGYYSMGWYREAPGKERELVAAITYSGGSTYYADSVKGRFTISRDNAKNTVYLQMNSLKPEDTAVYYCAAEGPVYTTYEYWGQGTQVTVSS | low polyreactivity
26 | QVQLVESGGGLVQAGGSLRLSCAASGLTFGYYVMGWYRQAPGKERELVAAISFRGVSTYYADSVKGRFTISRDNAKKTVDLQMNSLKPEDTAVNYCARRYTSKGGYDYWGQGTQVTVSS | high polyreactivity
27 | QVQLVESGGGLVQAGGSLRLSCAASGLTFHRYAMGWYRQAPGKERELVAAINYSGGRTYYADSVKGRFTISRDNAKNTLYLQMNSLKPEDTAVYYCAAPRASGYYWGQGTQVTVSS | high polyreactivity
28 | QVQLVESGGGLVQAGGSLRLSCAASGLTFHYYAMGWYRQAPGKERELVAAITATYYADSVKGRFTISRDNAKNTVYLQMNSLKPEDTAVYYCNAFLYPKQPLSPPDPTFEGGYWGQGTQVTVSS | low polyreactivity
29 | QVQLVESGGGLVQAGGSLRLSCAASGLTFIEYAKGWYRQAPGKERELVAAISSGGRTYYADSVKGRFTISRDNAKNTVYLQMNSLKPEDTAVYYCNARGYRRWYNYWGQGTQVTVSS | high polyreactivity
30 | QVQLVESGGGLVQAGGSLRLSCAASGLTFIFYAMGWYRQAPGKERELVATIRRSGSTYYADSVKGRFTISRDNAKNTVYLQMNSLKPEDTAVYYCNARYPYSYGDYWGQGTQVTVSS | high polyreactivity
31 | QVQLVESGGGLVQAGGSLRLSCAASGLTFIYYAMGWYRQAPGKERELVAAISVSGGSTSYADSVKGRFTISRDNAKNTVYLQMNSLKPEDTAVYYCAADWFVHKPRYQYSFDYWGQGTQVTVSS | low polyreactivity
